Source: publication PMC6984350 (Structure (London, England : 1993), 2018)

T1: Filamin A domains 4-6, wild type (human, UniProt P21333 571-861)
T1 sequence (looked up): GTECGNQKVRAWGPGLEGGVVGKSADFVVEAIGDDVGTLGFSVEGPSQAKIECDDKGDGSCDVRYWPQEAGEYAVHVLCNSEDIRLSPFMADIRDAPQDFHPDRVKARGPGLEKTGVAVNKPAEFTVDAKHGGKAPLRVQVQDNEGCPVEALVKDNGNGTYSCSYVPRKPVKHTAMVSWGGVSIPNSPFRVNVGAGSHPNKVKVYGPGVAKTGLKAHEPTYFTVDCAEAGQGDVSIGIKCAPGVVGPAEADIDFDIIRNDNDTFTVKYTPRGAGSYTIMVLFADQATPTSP


Target: T1, Filamin A domains 4-6, wild type
Test: SPR

| Kd [µM] | Binder |
| --- | --- |
| ~0.33 | PTPN12 C-terminal domain (600–780) (domain or fragment, UniProt Q05209 600-780, looked up) PLHSDDSDSDERNSDGAVTQNKTNISTASATVSAATSTESISTRKVLPMSIARHNIAGTTHSGAEKDVDVSEDSPPPLPERTPESFVLASEHNTPVRSEWSELQSQERSEQKKSEGLITSENEKCDHPAGGIHYEMCIECPPTFSDKREQISENPTEATDIGFGNRCGKPKGPRDPPSEWT |
| 0.27 | PTPN12 634–709 (domain or fragment, UniProt Q05209 634-709, looked up) ATSTESISTRKVLPMSIARHNIAGTTHSGAEKDVDVSEDSPPPLPERTPESFVLASEHNTPVRSEWSELQSQERSE |
| > 10000 | PTPN12 600–673 (domain or fragment, UniProt Q05209 600-673, looked up) PLHSDDSDSDERNSDGAVTQNKTNISTASATVSAATSTESISTRKVLPMSIARHNIAGTTHSGAEKDVDVSEDS |
| 0.32 | PTPN12–600-709 (domain or fragment, UniProt Q05209 600-709, looked up) PLHSDDSDSDERNSDGAVTQNKTNISTASATVSAATSTESISTRKVLPMSIARHNIAGTTHSGAEKDVDVSEDSPPPLPERTPESFVLASEHNTPVRSEWSELQSQERSE |
| > 10000 | PLHSDDSDSDERNSDGAVTQNKTNISTASATVSAA (domain or fragment, UniProt Q05209 600-634, looked up) [PTPN12–600-634] |
